We go through 2 proteins from article PMC10703350, “Fibril structures of TFG protein mutants validate the identification of TFG as a disease-related amyloid protein by the IMPAcT method” (PNAS Nexus, 2023).

Positions count from the first letter of the chain named. In names and notes the source's numbering stands.

The series concerns the molecule itself. Kind of series: cryo-EM structure; amyloid fibrils of the purified construct (formed at 50 μM in PBS, 37°C, shaking); helical reconstruction in RELION, de novo model of the fibril core.

B1: TFG low-complexity domain (residues 237-327) with the G269V mutation conjugated to mCherry (domain or fragment, human, UniProt Q92734 237-327, looked up)
chain: GQIEGQMYQQYQQQAGYGAQQPQAPPQQPQQYVIQYSASYSQQTGPQQPQQFQGYGQQPTSQAPAPAFSGQPQQLPAQPPQQYQASNYPAQ
notes: TRK-fused gene protein (TFG), human, low-complexity domain residues 237-327 with the disease-related (CMT2) mutation G269V; PDB 8TEQ holds only the ordered fibril core (262-290 and 265-290); also called mC-TFG-LCD-G269V; G269V mutant; source: E. coli BL21(DE3) gold, purified (Ni-NTA, size exclusion chromatography), dialyzed into PBS; not shown: mCherry, N-terminal, kept
With B1, the binding result is “binds”.

B2: TFG low-complexity domain (residues 237-327) with the P285L mutation conjugated to mCherry (domain or fragment, human, UniProt Q92734 237-327, looked up)
chain: B1 chain with V33G, P49L
notes: TRK-fused gene protein (TFG), human, low-complexity domain residues 237-327 with the disease-related (HMSN-P) mutation P285L; PDB 8TER holds only the ordered fibril core (265-299); also called mC-TFG-LCD-P285L; P285L mutant; source: E. coli BL21(DE3) gold, purified (Ni-NTA, size exclusion chromatography), dialyzed into PBS; not shown: mCherry, N-terminal, kept
For the protein B2, the binding result is reported as “binds”.
